The values below come from publication PMC12205087.

As usually defined, the stoichiometry N is the number of molecules, sites or subunits per partner or assembly.

Test [1] addresses NbaSPARDA complex (heterodimer of NbaAgo and DREN-APAZ), wild type (Novosphingopyxis baekryungensis). Briefly: cryo-EM structure; active complex: NbaSPARDA with gRNA and 21-nt tDNA (1:1.2:1.2), 0.2 mg/mL; filament, 3.18 Å.
Test [2] has the same target. As to the kind of experiment: cryo-EM structure; guide-bound complex: NbaSPARDA with 20-nt 5'-phosphorylated gRNA (1:1.2, 25 °C, 15 min), 0.4 mg/mL, buffer F (20 mM Tris-HCl pH 8.0, 200 mM NaCl, 2 mM DTT, 2 mM MgCl2); 2.93 Å, C2 symmetry.
Test [3] addresses DREN-APAZ protein of the NbaSPARDA system, strep-tagged (Novosphingopyxis baekryungensis). As to the kind of experiment: cryo-EM structure; active complex: NbaSPARDA with gRNA and 21-nt tDNA (1:1.2:1.2), 0.2 mg/mL; filament, 3.18 Å.
For test [4] the target is unchanged. As to the kind of experiment: cryo-EM structure; substrate-bound complex: NbaSPARDA with gRNA, 21-nt tDNA and substrate ssDNA, 0.16 mg/mL; filament, 3.19 Å.

For the substance “NbaSPARDA complex (heterodimer of NbaAgo and DREN-APAZ), wild type”, the results for the stoichiometry N in test [1] and in test [2] were 32 copies and 2, respectively.
Take “DREN-APAZ protein of the NbaSPARDA system, strep-tagged (natural protein)”: the stoichiometry N in test [3] and in test [4] was 4 each time.
